Source: US20210198328A1, “MODULATED CAS-INHIBITORS” (Universität Heidelberg, priority 2017, published 2021)

Experiments:
[1] = molecular target: T1, SpyCas9 (Streptococcus pyogenes serotype M1, UniProt Q99ZW2); test: Cas9 luciferase reporter cleavage assay (dual luciferase); assay type: cell-based; conditions: HEK 293T, 48 h post-transfection; for effect on Cas9-caused firefly luciferase knockdown (Cas9 inhibition): with or without N-terminal SV40 NLS
T1 construct: 2A-GFP (C); host or cells: HEK 293T
Description: HEK 293T cells were seeded into black, clear-bottom 96-well plates (Corning) at a density of ˜12.500 cells per well Twenty-four hours after seeding, cells were transfected according to the manufacturer's instructions using Lipofectamine® 2000 and Opti-MEM® reduced serum medium (Thermo Fisher).
For the dCas9-VP64 trans-activation assays, 50 ng/well of each, a plasmid encoding dCas9-VP64_GFP (Addgene plasmid #61422, kind gift from Feng Zhang), a tet-inducible firefly luciferase reporter (Addgene plasmid #64127, kind gift from Moritoshi Sato) and a TetO-targeting guide RNA vector (Addgene plasmid #64161, kind gift from Moritoshi Sato) were co-transfected alongside 1 ng/well pRL-TK (TK-driven Renilla expression vector for normalization; Promega) as well as 1-50 ng/well of the AcrIIA4 constructs and, optionally, stuffer DMA (pcDNA3.1(−) (Invitrogen)). For the reporter cleavage assay, a plasmid encoding an H1 promoter-driven guideRNA as well as firefly luciferase and Renilla luciferase was co-transfected alongside Cas9 expression vector pSpCas9(BB)-2A-GFP (PX453; Addgene plasmid #48138, kind gift from Feng Zhang) as weft as the corresponding AcrIIA4 variant (50 ng/well each). […]
(§1) Six h post-transfection, medium was replaced and the cells were illuminated with 460 nm pulsatile blue light (light intensity 2-3 W/m^2 as measured with a LI-COR LI-250A Light Meter, pulsatile illumination regime is indicated in figure legends) or kept in the dark under otherwise identical conditions for 32-42 h (indicated in figure legends). […] Subsequently, the luciferase activity was measured using the Dual-Glo luciferase assay kit (Promega) according to the manufacturer's protocol. In brief, the cells were lysed using the provided lysis buffer and tire activity of firefly and Renilla luciferase was quantified using a GLOMAX 96 Microplate Luminometer (Promega) with automated injectors (delay time 2 s, integration time 10 s). The relative luciferase activity was calculated by dividing the firefly luciferase photon counts by the Renilla luciferase photon counts. […]

[2] = molecular target: T2, dCas9-VP64 (Streptococcus pyogenes serotype M1, UniProt Q99ZW2, D10A/N863A); test: dCas9-VP64 luciferase reporter trans-activation assay; assay type: cell-based; conditions: HEK 293T
T2 construct: host or cells: HEK 293T
Description: HEK 293T cells were seeded into black, clear-bottom 96-well plates (Corning) at a density of ˜12.500 cells per well Twenty-four hours after seeding, cells were transfected according to the manufacturer's instructions using Lipofectamine® 2000 and Opti-MEM® reduced serum medium (Thermo Fisher). […]
as §1

[3] = tested on: HEK 293T cells; test: Light-induced nuclear export, mCherry fluorescence imaging; assay type: cell-based, human
Description: FIG. 5: Induced nuclear export inhibits AcrIIA4 function. (A) Schematic of AcrIIA4 construct fused to mCherry-LEXY. LEXY, light-inducible nuclear export system; fusion polypeptide sequence is SEQ ID NO: 114 (encoded by SEQ ID NO: 74). (B) Fluorescence images of HEK 293T cells transfected with the construct in A. mCherry images were taken prior to induction (Preinduction), after 15 min of irradiation with blue light (Post Activation) and after an additional 20 min recovery phase in the absence of blue light (Post Recovery). (C) Line profile of the indicated cell in B, (D) Bar plot showing control of dCas9-VP64-mediated luciferase reporter activation by NLS-AcrIIA4-mCherry-LEXY. […]
To test whether sequestering AcrIIA4 away from the nucleus could be a possible mode for allosteric Acr control we employed a light-inducible nuclear export system (LEXY) previously reported (Niopek et al., 2016), which mediates the nuclear export of proteins fused to the LEXY domain (an AsLOV2-Nuclear Export Signal-Hybrid) in response to blue light. […] The nuclear mChcrry fluorescence fully recovered within 20 min when blue-light irradiation was stopped, showing that AcrIIA4 nuclear export was reversible (FIGS. 5B and Q.

[4] = molecular target: T3, Cas9 (Streptococcus pyogenes serotype M1, UniProt Q99ZW2); test: T7 endonuclease assay, CFTR locus editing; assay type: cell-based; conditions: HEK 293T
T3 construct: expressed in transfected cells; host or cells: HEK 293T
Description: HEK 293T cells were seeded into transparent 96-well plates (Coming). […] Sixteen It post-transfection, cells were irradiated with blue light (7 s ON, 7 s OFF, 3 W/m^2) for 32 h or kept in the dark as control. Subsequently, cells were washed with PBS and lysed using the DirectPCR lysis reagent (PcqLab). A fragment spanning the edited part of the CFTR locus was PCR-amplified using Q5 polymerase and the following primers: CFTR_fw: 5′-[…]-3′, SEQ ID NO: 30; CFTR_re: 5′-[…]-3′, SEQ ID NO: 31). The PCR reaction was run on an agarose gel and the amplicon was purified using a QIAGEN Gel Extraction Kit. Two hundred ng of PCR diluted in 19.5 μl 1× NEB Buffer 2 were then healed up to 95° C. followed by re-annealing in a thermocycler. Next, 0.5 μl of T7 Endonuclease (NEB) were added, and the reaction was incubated at 37° C. for 15 min and then stopped by adding EDTA-containing gel loading dye. Lastly, T7 reactions were analyzed on a 2% agarose gel stained with GelRed (Biotium, Inc.).

Substance: AcrIIA4: anti-CRISPR polypeptide of a Listeria monocytogenes prophage, SEQ ID NO: 1 [reference compound]
- effect on Cas9-caused firefly luciferase knockdown (Cas9 inhibition) [1]: strongly reduced

Substance: NLS-AcrIIA4-mCherry-LEXY: NLS-tagged AcrIIA4 fused to mCherry and light-inducible nuclear export system LEXY; SEQ ID NO: 114
- dCas9-VP64-mediated luciferase reporter induction upon light-induced nuclear export ([2]; blue light vs dark, dose-dependent): noticeable increase
- time to full recovery of nuclear mCherry fluorescence after blue-light irradiation was stopped [3]: ≤ 20 min
- nuclear mCherry fluorescence upon blue-light irradiation ([3]; 15 min blue light): fast and strong decrease

Substance: SV40 NLS-AcrIIA4: N-terminal SV40 NLS fusion to AcrIIA4; SEQ ID NO: 115
- effect on Cas9-caused firefly luciferase knockdown (Cas9 inhibition) [1]: full recovery of the luciferase reporter signal

Substance: cMyc^PIA NLS-mCherry-AcrIIA4
- AcrIIA4 activity due to nuclear targeting (dCas9-VP64 inhibition) ([2]; 48 h post-transfection): boost in AcrIIA4 activity

Substance: construct 1: LOV2 inserted between AcrIIA4 residues E66/Y67, no linkers; SEQ ID NO: 88
- Cas9 inhibition in the dark (CFTR locus editing) ([4]; Cas9:AcrIIA4 construct 1:1, dark): no significant
- light-dependent Cas9 inhibition (CFTR locus editing light vs dark) ([4]; Cas9:AcrIIA4 construct 1:4, blue light 32 h or dark): inhibited Cas9 in a light-dependent manner
- Cas9 block in the dark (CFTR editing in dark sample) ([4]; Cas9:AcrIIA4 construct 1:4, dark): did not fully block Cas9
- Cas9 inhibition in the absence of blue light ([1]; LOV2 insertion screen at 41 positions): highest
